In assay [1] the target is recombinant CD8 antigen (not stated (the Fab labels human PBMCs)). Put plainly: SPR (Biacore), recombinant antigen (extracellular domain) immobilized by amine coupling, Fab as analyte, 1:1 binding mass transfer model. (Surface plasmon resonance follows binding to a sensor surface in real time, without labels.)
Assay [2] has as its target CD8 antigen on human PBMCs (human) (UniProt P01732). Description: flow cytometry, human PBMCs, biotinylated Fab 1 µg/mL, SA-APC, after five washing steps; enables reversible labeling: no. A general note: A flow cytometer gives signals particle by particle.
For assay [3] the target is unchanged. Description: flow cytometry, human PBMCs, biotinylated Fab 1 µg/mL, SA-APC, before washing; median of control (background) 0.1.
For assay [4] the target is unchanged. Put plainly: flow cytometry, human PBMCs, biotinylated Fab 1 µg/mL, SA-APC, after five washing steps; median of control (background) 0.1; enables reversible labeling: no.
Assay [5] addresses recombinant CD19 antigen (not stated (the Fab labels human PBMCs)) (UniProt P15391). Put plainly: SPR (Biacore), recombinant antigen (extracellular domain) immobilized by amine coupling, Fab as analyte, 1:1 binding mass transfer model.
The target of assay [6] is CD19 antigen on human PBMCs (human) (UniProt P15391). Put plainly: flow cytometry, human PBMCs, biotinylated Fab 1 µg/mL, SA-APC, after five washing steps; enables reversible labeling: yes.
For assay [7] the target is unchanged. Put plainly: flow cytometry on human PBMCs, SA-APC median after five washing steps; background 0.2.
Assay [8] shares this target. Description: flow cytometry, human PBMCs, biotinylated Fab 1 µg/mL, SA-APC, before washing; median of control (background) 0.25.
Assay [9] deals with CD45RA antigen on human PBMCs (human) (UniProt P08575). Put plainly: flow cytometry, human PBMCs, biotinylated Fab 1 µg/mL, SA-APC, after five washing steps; enables reversible labeling: yes.
Assay [10] shares this target. Description: flow cytometry, human PBMCs, biotinylated Fab 1 µg/mL, SA-APC, before washing; median of control (background) 0.1.
The target is the same in assay [11]. Put plainly: flow cytometry, human PBMCs, biotinylated Fab 1 µg/mL, SA-APC, after five washing steps; median of control (background) 0.1; enables reversible labeling: yes.

Experimental findings from US20180217151A1 are described below.

CD8 antigen on human PBMCs (human), sequence (P01732 22-235): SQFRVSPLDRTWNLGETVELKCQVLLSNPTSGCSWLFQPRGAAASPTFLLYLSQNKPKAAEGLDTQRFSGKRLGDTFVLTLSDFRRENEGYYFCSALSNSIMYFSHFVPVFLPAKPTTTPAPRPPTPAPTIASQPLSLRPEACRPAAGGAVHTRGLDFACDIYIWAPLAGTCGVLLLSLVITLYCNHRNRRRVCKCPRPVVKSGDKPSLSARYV
recombinant CD19 antigen (not stated (the Fab labels human PBMCs)), sequence (P15391 20-291): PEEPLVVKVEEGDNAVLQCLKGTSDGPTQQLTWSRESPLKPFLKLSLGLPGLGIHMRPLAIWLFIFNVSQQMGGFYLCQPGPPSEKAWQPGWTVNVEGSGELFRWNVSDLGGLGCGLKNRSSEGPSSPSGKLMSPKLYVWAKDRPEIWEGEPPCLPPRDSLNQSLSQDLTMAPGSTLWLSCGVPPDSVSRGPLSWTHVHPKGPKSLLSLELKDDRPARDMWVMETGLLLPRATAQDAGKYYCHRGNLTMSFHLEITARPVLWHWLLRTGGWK
recombinant CD8 antigen (not stated (the Fab labels human PBMCs)), sequence (P01732 22-182): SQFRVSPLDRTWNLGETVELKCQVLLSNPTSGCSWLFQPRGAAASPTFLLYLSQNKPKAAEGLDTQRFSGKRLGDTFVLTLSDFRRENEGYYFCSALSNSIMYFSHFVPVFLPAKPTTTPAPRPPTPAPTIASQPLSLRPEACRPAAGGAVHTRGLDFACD
CD19 antigen on human PBMCs (human), sequence (P15391 20-556): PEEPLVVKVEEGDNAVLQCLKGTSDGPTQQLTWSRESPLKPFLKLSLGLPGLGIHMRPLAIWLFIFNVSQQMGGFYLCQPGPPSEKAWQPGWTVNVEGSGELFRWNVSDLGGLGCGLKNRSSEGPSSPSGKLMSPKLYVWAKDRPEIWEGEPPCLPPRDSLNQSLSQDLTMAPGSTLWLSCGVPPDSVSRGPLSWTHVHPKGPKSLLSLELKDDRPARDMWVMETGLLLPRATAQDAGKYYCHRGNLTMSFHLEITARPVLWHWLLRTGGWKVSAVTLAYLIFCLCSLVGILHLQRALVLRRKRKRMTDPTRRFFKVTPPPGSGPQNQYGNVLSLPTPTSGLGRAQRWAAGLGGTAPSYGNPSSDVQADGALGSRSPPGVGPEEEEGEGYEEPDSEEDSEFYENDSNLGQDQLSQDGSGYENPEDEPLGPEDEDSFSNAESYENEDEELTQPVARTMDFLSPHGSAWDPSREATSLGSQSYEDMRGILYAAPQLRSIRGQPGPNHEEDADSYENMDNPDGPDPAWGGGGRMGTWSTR

B1: OKT8 pFab (Fab, from another filing, V domains shown)
VH: EVQLQQSGAELVKPGASVKLSCTASGFNIKDTYIHFVRQRPEQGLEWIGRIDPANDNTLYASKFQGKATITADTSSNTAYMHLCSLTSGDTAVYYCGRGYGYYVFDHWGQGTTLTVSS
VL: DVQINQSPSFLAASPGETITINCRTSRSISQYLAWYQEKPGKTNKLLIYSGSTLQSGIPSRFSGSGSGTDFTLTISGLEPEDFAMYYCQQHNENPLTFGAGTKLELK
For B1, in assay [1], the Kd is 0.62 nM, the koff worked out at 0.0013 s⁻¹ and the kon is 2.1e+06 M⁻¹ s⁻¹. In addition, the % median value of the detected label after Fab removal (before = 100%) in assay [2] turned out to be 51%. In assay [3], the median value (i) is 45. Moreover, in assay [4], the median value after Fab removal (ii) was determined as 23.

B2: SJ25-C1 pFab (Fab, from another filing, V domains shown)
VH: EVKLQQSGAELVRPGSSVKISCKASGYAFSSYWMNWVKQRPGQGLEWIGQIYPGDGDTNYNGKFKGQATLTADKSSSTAYMQLSGLTSEDSAVYFCARKTISSVVDFYFDYWGQGTTVTVSS
VL: DIELTQSPKFMSTSVGDRVSVTCKASQNVGTNVAWYQQKPGQSPKPLIYSATYRNSGVPDRFTGSGSGTDFTLTITNVQSKDLADYFCQQYNRYPYTSGGGTKLEI
Regarding B2, in assay [5], the Kd came out at 7 nM, the koff turned out to be 0.0031 s⁻¹ and the kon is 440000 M⁻¹ s⁻¹. In addition, the % median value of the detected label after Fab removal (before = 100%) in assay [6] is 4.4%. This molecule also had a median of remaining detectable label after removal of Fab in assay [7] of 1.2. In assay [8], the median value (i) is 27.

B3: MEM56-LAV rFab (Fab, V domains shown)
VH: QVQLQQSGAELAKPGASVKMSCKASGYNFTRYWMHWIKQRPGQGLEWIGYINPNTGHTEYNQKFKDKATLTADKSSSTAYMQLSSLTSEDSAVYYCATYYYGSRRDAGQGTTLTVSS
VL: QIVLTQSPAIMSASLGERVTMTCTTSSSVSSSYLHWYQQKPGSSPKLWIYSTSNLASGVPARFSGSGSGTSYSLTISTVEAEDAATYYCHQYHRSPLTFGAGTKLELKR
modifications: In the cell assay the Fab was biotinylated with a thiol-reactive reagent (e.g. maleimide-PEO2-biotin) on cysteines of the reduced disulfide bridge; positions not stated.
Molecule B3 displayed a % median value of the detected label after Fab removal (before = 100%) in [9] of 6.9%. In addition, the median value (i) in [10] was found to be 2.9. The molecule further displayed a median value after Fab removal (ii) in [11] of 0.2.

In general, Kd refers to the concentration at which binding is half-saturated. For orientation: koff means a measure of how fast the partners let go of each other. The kon is a measure of how fast the partners come together.
